Measurements as given in the supplement of paper PMC10567573.

B1: WDR88 (parent)
chain: LLTITKAHSNAISNCCFTFSGHFL
B2: ADAMTSL2 (parent)
chain: KKPPEESTCFERPCFKWYTSPWSE

Variants of: B1
Experiment: protein stability index of a GFP-peptide fusion (GPS, HEK-293T) (PSI 1-6); higher = more stable
Details: c terminus: a fixed tail appended
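Note: lentivirally expressed fusions sorted by FACS into six bins by GFP to DsRed ratio, PSI derived from sequencing read proportions per bin multiplied by bin number.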

Variant | protein stability index
H8L | 3.6
H8N | 2.03
H8P | 2.35
H8Q | 2.24
H8R | 3.29
H8S | 2.6
H8T | 2.38
H8V | 2.58
H8W | 2.17
H8Y | 4.38
S9A | 3.55
S9C | 1.89
S9D | 3.12
S9F | 4.2
S9G | 2.8
S9H | 2.45
S9I | 2.46
S9K | 2.83
S9L | 2.95
S9M | 2.31
S9N | 3.57
S9P | 2.39
S9Q | 3.42
S9R | 1.77
S9T | 2.15

Variant | protein stability index
S9V | 4.49
S9W | 3.1
S9Y | 3.69
N10A | 2.64
N10C | 4.06
N10D | 3.19
N10F | 3.94
N10H | 2.75
N10I | 3.1
N10K | 2.12
N10P | 2.89
N10Q | 3.31
N10R | 2.99
N10S | 3.46
N10T | 3.75
N10V | 2.49
A11C | 1.97
A11D | 2.27
A11E | 3.24
A11F | 2.93
A11G | 3.47
A11H | 2.82
A11K | 2.66
A11L | 3.15
A11M | 2.82

Variant | protein stability index
A11N | 3.27
A11P | 3.08
A11Q | 3.19
A11S | 3.22
A11T | 3.57
A11V | 2.69
A11W | 2.7
I12A | 2.3
I12C | 3.49
I12D | 1.96
I12E | 1.77
I12F | 3.3
I12G | 2.96
I12H | 3.51
I12K | 2.4
I12L | 3.56
I12M | 3.38
I12N | 2.49
I12P | 2.55
I12Q | 2.57
I12R | 2.74
I12S | 3.14
I12T | 2.98
I12V | 3.69
I12Y | 2.33

Variant | protein stability index
S13A | 2.17
S13C | 2.35
S13D | 2.2
S13E | 2.6
S13F | 3.89
S13G | 2.7
S13H | 3.44
S13I | 3.51
S13K | 2.03
S13L | 3.23
S13M | 3.08
S13N | 2.6
S13P | 3.02
S13Q | 3.54
S13R | 2.7
S13T | 3.02
S13V | 2.2
S13W | 3.57
S13Y | 2.48
N14A | 1.44
N14C | 3.23
N14D | 3.07
N14E | 2.25
N14F | 3.06
N14G | 3.72

Variant | protein stability index
N14H | 3.22
N14I | 3.89
N14K | 2.63
N14L | 4.15
N14M | 2.99
N14P | 3.55
N14Q | 1.82
N14S | 2.39
N14T | 2.94
N14V | 2.52
N14W | 2.37
N14Y | 2.53
C15A | 4.06
C15D | 1.84
C15E | 2.58
C15F | 3.46
C15G | 2.42
C15H | 2.78
C15I | 3.44
C15K | 2.11
C15L | 2.27
C15M | 2.19
C15N | 2.98
C15P | 2.19
C15Q | 3.52

Variant | protein stability index
C15R | 3.77
C15S | 2.97
C15T | 3.89
C15V | 3.3
C15W | 2.31
C15Y | 2.88
C16A | 3.4
C16D | 2.33
C16E | 2.9
C16F | 3.35
C16G | 2.75
C16H | 2.61
C16I | 2.8
C16K | 2.37
C16L | 3.05
C16M | 3.28
C16N | 4.12
C16P | 2.25
C16Q | 2.41
C16R | 1.87
C16S | 2.44
C16T | 2.9
C16V | 1.95
C16Y | 2.18
F17A | 2.38

Variant | protein stability index
F17C | 1.84
F17D | 1.92
F17E | 2.35
F17G | 1.69
F17H | 1.42
F17I | 3.65
F17K | 2.43
F17L | 3.73
F17M | 2.29
F17N | 2.58
F17P | 2.13
F17Q | 2.58
F17S | 1.37
F17T | 2.66
F17V | 2.88
F17W | 1.45
F17Y | 3.26
T18A | 3.52
T18C | 2.47
T18D | 2.03
T18E | 1.84
T18F | 2.9
T18G | 3.29
T18H | 2.53
T18I | 2.34

Variant | protein stability index
T18K | 2.33
T18L | 2.92
T18M | 2.19
T18N | 3.85
T18P | 2.54
T18R | 2.93
T18S | 2.58
T18V | 3.09
T18W | 2.86
T18Y | 2.76
F19A | 2.16
F19C | 2.77
F19D | 2.38
F19E | 1.77
F19G | 2.62
F19H | 3.04
F19I | 2.85
F19K | 1.82
F19L | 2.82
F19M | 1.69
F19N | 2.33
F19P | 1.88
F19Q | 1.63
F19R | 2.66
F19S | 2.56

Variant | protein stability index
F19T | 2.52
F19V | 2.15
F19W | 2.32
F19Y | 2.82
S20A | 1.09
S20C | 2.69
S20D | 1.98
S20E | 2.51
S20F | 2.6
S20G | 2.99
S20I | 2.07
S20K | 2.04
S20L | 2.94
S20M | 2.56
S20N | 2.94
S20P | 2.34
S20Q | 2.88
S20R | 3.76
S20T | 2.67
S20V | 2.54
S20W | 2.06
S20Y | 2.36
G21A | 2.88
G21C | 2.31
G21D | 2.75

Variant | protein stability index
G21E | 2.6
G21F | 2.41
G21H | 2.53
G21I | 2.97
G21K | 2.77
G21L | 2.46
G21M | 3.69
G21N | 2.42
G21P | 3
G21Q | 2.92
G21R | 1.97
G21S | 3.32
G21T | 3.34
G21V | 2.89
G21W | 2.94
G21Y | 2.25
H22A | 2.56
H22C | 3.5
H22D | 2.31
H22E | 2.89
H22F | 2.02
H22G | 2.96
H22I | 3.1
H22K | 2.06
H22L | 3.61

Variant | protein stability index
H22M | 3.59
H22N | 2.9
H22P | 2.51
H22Q | 2.78
H22R | 1.27
H22S | 2.34
H22T | 2.83
H22V | 2.67
H22W | 3.16
H22Y | 2.93
F23A | 3.02
F23D | 1.95
F23E | 2.1
F23G | 2.05
F23H | 2.91
F23I | 2.79
F23K | 1.94
F23M | 3.51
F23N | 1.99
F23P | 2.96
F23Q | 1.79
F23S | 2.72
F23T | 1.91
F23V | 1.99
F23W | 3.34

Variant | protein stability index
F23Y | 2.94
L24A | 2.74
L24C | 2.68
L24D | 1.92
L24E | 1.77
L24F | 3.56
L24G | 2.88
L24H | 2.63
L24I | 3.37
L24K | 2.93
L24M | 2.98
L24N | 3.3
L24P | 2.46
L24Q | 2.64
L24R | 2.28
L24S | 1.09
L24T | 2.47
L24V | 1.91
L24W | 1.58
L24Y | 3.97

Variants of: B2
Experiment: as above
Details: c terminus: a fixed tail appended

Variant | protein stability index
K1A | 2.38
K1C | 1.89
K1D | 2.67
K1E | 3.08
K1F | 2.59
K1G | 2.34
K1H | 2.33
K1I | 1.71
K1L | 2.35
K1M | 2.48
K1N | 3.12
K1P | 2.24
K1Q | 2.58
K1R | 2.88
K1S | 2.37
K1T | 2.52
K1V | 2.29
K1W | 1.75
K1Y | 1.83
K2A | 3.16

Variant | protein stability index
K2C | 2.75
K2D | 3.01
K2E | 2.79
K2F | 2.13
K2G | 2.73
K2H | 1.96
K2I | 1.78
K2L | 2.73
K2M | 2.72
K2N | 2.94
K2P | 2.27
K2Q | 2.29
K2R | 2.61
K2S | 2.15
K2T | 2.66
K2V | 2.04
K2W | 2.39
K2Y | 2.36
P3A | 2.83
